Measured values published in the supplement of paper PMC9170038.

Tested on: MS2 coat protein
Experiment: apparent KD of MS2 coat protein; designed switch direction (-1 OFF switch, 1 ON switch): 1; higher = weaker reporter binding
Procedure, shortened: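 Designed RNA switches with common flanks were made on Illumina chips by stalled E. coli RNA polymerase. Titration with SNAP-549-labelled MS2 coat protein doubled from 0.7 or 1.5 nM up to 3 µM. Apparent KD is each design's median over clusters after curve-fitting normalised fluorescence.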

[1] = input ligand: microRNA oligo, concentration not stated

Sequence	apparent KD of MS2 coat protein (input ligand: FMN 200 uM) [nM]	apparent KD of MS2 coat protein [1] [nM]	apparent KD of MS2 coat protein (input ligand: none) [nM]
GCCGCGUUUCGCGCCUACAUGAGGAUCACCCAUGUUUGUAGGCAGGAUAUCGCCCGCUUUGCGGGCGAGAAGGGCUGUUGUGGC [salish99_SSNG3_R04_020] (Eterna round: R96, puzzle: Same State NG 3)	59	38.8	55.5
GCCGCGUUUCGCGCCUACAUGAGGAUCACCCAUGUUUGUAGGCAGGAUAUCGUCCGCUCUGCGGGCGAGAAGGGCUGUUGUGGG [salish99_SSNG3_R04_023] (Eterna round: R96, puzzle: Same State NG 3)	214	139	179
GCCGGCUGGUGAGGAUAUGGCGCCUUGUUGGUGCCAGAAGGCAUGUCAAUUGACAUGAGGAUCACCCAUGUGUUGUCGUUGGCG [salish99_SSNG1_r04_611] (Eterna round: R96, puzzle: Same State NG 1)	808	110	459
GCGAAAUGAUGUGACAUGAGGAUCACCCAUGUAACCUCAUGUAAGGAUAUCGGAAAAAAAAAAACCGAGAAGGUAUGGUCACGC [AK SSNG3-V2-27.1] (Eterna round: R96, puzzle: Same State NG 3)	124	86.4	216
GCGAGCGUACUUGCAACAUGAGGAUCACCCAUGUUAACUGGACAGGAUAUGGUACCGUUUCGGUACCAGAAGGGUUCCUCAUUG [JL SSNG3 3.63] (Eterna round: R96, puzzle: Same State NG 3)	319	34.7	437
GCGAGCGUACUUGCAGACAUGAGGAUCACCCAUGUAACUGGACAGGAUAUGGUACCGUUUCGGUACCAGAAGGGUCCAUAUGUC [JL SSNG3 3.54] (Eterna round: R96, puzzle: Same State NG 3)	64.4	115	130
GCGAGCGUACUUGCAGACAUGAGGAUCACCCAUGUAACUGGGUAGGAUAUGGUACCGUUUCGGUACCAGAAGGACUUAUGAAAG [JL SSNG3 1.50] (Eterna round: R96, puzzle: Same State NG 3)	67	35	54.4
GCGGAGAGGUAAGGAUAUCCAUGGAAGAAACAUGAGGAUCACCCAUGUAGGAAGAAGACUAGGAGGGAGAAGGUACCGGGACGC [AK SSNG2-V2-20.1] (Eterna round: R96, puzzle: Same State NG 2)	29.2	26.2	40.5
GCGGAGAGGUAAGGAUAUCCAUGGCAUAGACAUGAGGAUCACCCAUGUAGGAGACGAAUUAGAAGGGAGAAGGUACCGGGACGC [AK SSNG2-V2-19] (Eterna round: R96, puzzle: Same State NG 2)	175	111	168
GCGGAGAGGUCAGGAUAUCCAUGGAAGACACAUGAGGAUCACCCAUGUGGGAGGGAAACCAGGAGGGAGAAGGGACCGGGACGC [ssng2 v2 c] (Eterna round: R96, puzzle: Same State NG 2)	11.4	10.3	13.3
GCUACAUGAGGAUCACCCAUGUGUGCGUGGGAGUGAGUGGCUUAGGAUAUCUAUGACUUUAGUUGAGAGAAGGAGGAUUGCUGU [SS-NG3-LRO11] (Eterna round: R96, puzzle: Same State NG 3)	190	105	173
GCUAGAAAUAAUGCCAACAUGAGGAUCACCCAUGUAUGUUGGCAGGAUAUCGUAUGCAAAGCAUACGAGAAGGGCUAAACUAGC [Mat - Same State NG 3 - JL Mod - D9] (Eterna round: R96, puzzle: Same State NG 3)	217	190	231
GCUAGAAUAAACGCCUACAUGAGGAUCACCCAUGUAUGUAGGCAGGAUAUCGUUUGCAAAGCAAACGAGAAGGGCCUUACUAGC [Mat - Same State NG 3 - JL Mod - D32] (Eterna round: R96, puzzle: Same State NG 3)	20.2	22.2	37.1
GCUAGAAUUAAAGCCAACAUGAGGAUCACCCAUGUAUGUUGGUAGGAUAUCGUUUGCAAAGCAAACGAGAAGGGCCAAACUAGC [Mat - Same State NG 3 - JL Mod - D19] (Eterna round: R96, puzzle: Same State NG 3)	86.6	104	99.7
GCUAGAAUUAAUGCUAACAUGAGGAUCACCCAUGUAUGUUGGCAGGAUAUCGUUUGCUUUGCAAACGAGAAGGGCCAUACUAGC [JL SSNG3 1.09] (Eterna round: R96, puzzle: Same State NG 3)	20	14	26.3
GCUCGAAUCAGAACCAACAUGAGGAUCACCCAUGUGUGUUGGUAGGAUAUCGUUUCUAAGAGAAACGAGAAGGGCCGAACGAGC [SameState NG3 #6] (Eterna round: R96, puzzle: Same State NG 3)	41	52.3	75.7
GCUCGACGUAUUGUUUACAUGAGGAUCACCCAUGUAGGUGCGAAGGAUAUCUACGUGUUUCAUGUAGAGAAGGUCGUGUCGAGC [SameState NG3 #92] (Eterna round: R96, puzzle: Same State NG 3)	19.3	42.5	54.1
GCUCGACUGAUGGCCUACAUGAGGAUCACCCAUGUGAUUGGGCAGGAUAUCUAGAUGCAGGAUGUAGAGAAGGGCCGGUCGAGC [SameState NG3 #46] (Eterna round: R96, puzzle: Same State NG 3)	472	501	475
GCUCGAUGUGCUGUUUACAUGAGGAUCACCCAUGUAGAUGCGGAGGAUAUCUACGUGCUUUAUGUAGAGAAGGUCGUAUCGAGC [SameState NG3 #83] (Eterna round: R96, puzzle: Same State NG 3)	33.4	41.2	60.8
GCUCGCACGAUGACCCACAUGAGGAUCACCCAUGUGCAUGGGCAGGAUAUCUAGAUUAAGGAUGUAGAGAAGGGUUGAGCGAGC [SameState NG3 #26] (Eterna round: R96, puzzle: Same State NG 3)	1580	192	533
GCUCGCACGAUGACCGACAUGAGGAUCACCCAUGUGUGUCGGUAGGAUAUCUAUAUUAAGGAUUUAGAGAAGGGCCGAGCGAGC [SameState NG3 #21] (Eterna round: R96, puzzle: Same State NG 3)	57.1	104	117
GCUCGUACGAUGACCGACAUGAGGAUCACCCAUGUGUGUCGGUAGGAUAUCUAUAUUAAGGAUUUAGAGAAGGGCCCAACGAGC [SameState NG3 #19] (Eterna round: R96, puzzle: Same State NG 3)	63.3	66.5	82
GCUGCAAGGGCAGGAUAUGGGUUCAGAGCAGAAGUGCGCUUUGAUACAUGAGGAUCACCCAUGUCCCAGAAGGGCCCAAGCGGC [Veribe] (Eterna round: R96, puzzle: Same State NG 2)	17.7	98.3	159
GGAAACAAGAGAGGAUAUGCAGAGGAUCACCCUGCAGAAGGCUCAAAAGAGAGGAUAUGCAGAGGAUCACCCUGCAGAAGGCUC [pwkr ssNG DX.27] (Eterna round: R96, puzzle: Same State NG 1)	17.8	11.2	21.4
GGAAACUUGAGAGGAUAUGUAGAGGAUCACCCUACAGAAGGCUCAAAAGAGAGGAUAUGUAGAGGAUCACCCUACAGAAGGCUC [pwkr ssNG DX.11] (Eterna round: R96, puzzle: Same State NG 1)	24.9	23.7	33.1
GGAAAGAGGUAAGGAUAUGCAUGGCUGGGACAUGAGGAUCACCCAUGUAAUAGAAGAAAUCUAGGGUAGAAGGUACAAGGAAGG [AK SSNG2-V2-9] (Eterna round: R96, puzzle: Same State NG 2)	1110	367	450
GGAAGGAGGUCAGGAUAUGGAUGGAAGGUACAUGAGGAUCACCCAUGUUACGGAGGAAGGAAACGUUAGAAGGGAUAAGGAAGG [AK SSNG2-V2-2.1] (Eterna round: R96, puzzle: Same State NG 2)	34.7	24.9	31.8
GGAAUAUUUACAGGAUAUCAUUUGUAAAUUCGAUGAGAAGGGUAGAUGUCUUACACGACGUGUUACAUGAGGAUCACCCAUGUU [SameState NG1 #7] (Eterna round: R96, puzzle: Same State NG 1)	146	142	146
GGAGACAGAGCAGGAUAUGCUCCGAGUAACGAAGCAGAAGGGUUCGUAAAUCGUCGACAUGAGGAUCACCCAUGUGACCUAGUA [Eternabot solution 18] (Eterna round: R96, puzzle: Same State NG 1)	20.7	18.4	24.7
GGAGCCGGCACCGAGGAUAUUCAUAUUAAAACAUGAGGAUCACCCAUGUAGGCCAGAAGGCCUUGGGAGAAGGCGGACCGGCUCG [Xeonanis - 4] (Eterna round: R96, puzzle: Same State 2)	27.4	165	287
